Earlier results in paper PMC2846628.

Molecular target: Cdc25 phosphopeptide (Homo sapiens)
Assay: NMR titration

Kd: 8 µM
Substance: Pin1 1-163 (from UniProt Q13526)
